{"source": "patent US20140051589", "key": {"[1]": {"test_system": "1,557 peptides that contain no tyrosine residues (3,243-plex peptide construct set)"}, "[2]": {"test_system": "T1, peptide construct comprising the Abl substrate GEAIYAAPFA (SEQ ID NO:13) with C-terminal FLAG tag", "T1 sequence": "GEAIYAAPFADYKDDDDK"}, "[3]": {"test_system": "T2, peptide construct with Cortactin 10-mer GLAYATEAVY (SEQ ID NO:16)", "T2 sequence": "GLAYATEAVY"}, "[4]": {"test_system": "T3, peptide construct with Cortactin 10-mer VYSMEAADYR (SEQ ID NO:19)", "T3 sequence": "VYSMEAADYR"}, "[5]": {"test_system": "T4, peptide construct with Cortactin 10-mer GTEPEPVYSM (SEQ ID NO:18)", "T4 sequence": "GTEPEPVYSM"}, "[6]": {"test_system": "T5, peptide construct with Cortactin 10-mer QVSSAYQKTV (SEQ ID NO:20)", "T5 sequence": "QVSSAYQKTV"}, "[7]": {"test_system": "T6, peptide construct with Cortactin 10-mer GHYPAEDSTY (SEQ ID NO:17)", "T6 sequence": "GHYPAEDSTY"}, "[8]": {"test_system": "peptides containing thrombin cleavage sites (whole yeast peptide construct set from S. cerevisiae genomic DNA)"}, "[9]": {"test_system": "T7, peptide construct comprising the enterokinase substrate AGDDDDKAG (SEQ ID NO:2)", "T7 sequence": "CAAGDDDDKAG"}, "[10]": {"test_system": "T8, peptide construct comprising the thrombin substrate GLVPRGSAG (SEQ ID NO:1)", "T8 sequence": "CAGLVPRGSAG"}, "[11]": {"test_system": "peptide construct with HCV polyprotein 8-mer EAIYQCCD (SEQ ID NO:12)"}, "[12]": {"test_system": "peptide construct with HCV polyprotein 8-mer VVCCSMSY (SEQ ID NO:10)"}, "[13]": {"test_system": "peptide construct with HCV polyprotein 8-mer MEECSQHL (SEQ ID NO:8)"}, "[14]": {"test_system": "peptide construct with HCV polyprotein 8-mer TTPCSGSW (SEQ ID NO:9)"}, "[15]": {"test_system": "peptide construct with HCV polyprotein 8-mer EVVTSTWV (SEQ ID NO:11)"}}}
{"substance": "ABL1 tyrosine kinase", "values": [{"measurement": "phosphorylation, capture on anti-phosphotyrosine beads and sequencing counts", "setting": "[1]", "value": "None of the 1557 negative peptides were detected in the assays"}, {"measurement": "relative qPCR signal {2^[Ct(untreated)-Ct(test)]} after biotin labelling of phosphotyrosine and capture on streptavidin beads", "setting": "[2]", "value": "The qPCR signal was ~2-fold higher for the kinase-treated preparation, relative to the untreated preparation"}, {"measurement": "relative qPCR signal {2^[Ct(untreated)-Ct(test)]} after capture on anti-phosphotyrosine antibody beads", "setting": "[2]", "value": "The qPCR signal was significantly higher (~120-fold) for the kinase-treated preparation, relative to the untreated preparation"}]}
{"substance": "SRC tyrosine kinase", "values": [{"measurement": "phosphorylation, capture on anti-phosphotyrosine beads and sequencing counts", "setting": "[3]", "value": "Two of the three Src phosphorylation sites (GLAYATEAVY (SEQ ID NO: 16) and GHYPAEDSTY (SEQ ID NO: 17)) were detected"}, {"measurement": "phosphorylation, capture on anti-phosphotyrosine beads and sequencing counts", "setting": "[4]", "value": "Two more sites were identified (GTEPEPVYSM (SEQ ID NO: 18) and VYSMEAADYR (SEQ ID NO: 19))"}, {"measurement": "phosphorylation, capture on anti-phosphotyrosine beads and sequencing counts", "setting": "[1]", "value": "None of the 1557 negative peptides were detected in the assays"}, {"measurement": "phosphorylation, capture on anti-phosphotyrosine beads and sequencing counts", "setting": "[5]", "value": "Two more sites were identified (GTEPEPVYSM (SEQ ID NO: 18) and VYSMEAADYR (SEQ ID NO: 19))"}, {"measurement": "phosphorylation, capture on anti-phosphotyrosine beads and sequencing counts", "setting": "[6]", "value": "the third known site that was not detected (QVSSAYQKTV (SEQ ID NO: 20))"}, {"measurement": "phosphorylation, capture on anti-phosphotyrosine beads and sequencing counts", "setting": "[7]", "value": "Two of the three Src phosphorylation sites (GLAYATEAVY (SEQ ID NO: 16) and GHYPAEDSTY (SEQ ID NO: 17)) were detected"}]}
{"substance": "thrombin", "values": [{"measurement": "protease cleavage, sequence analysis of released constructs", "setting": "[8]", "value": "Sequence analysis demonstrated a significant enrichment of peptides containing thrombin cleavage sites"}, {"measurement": "protease cleavage, PAGE of reaction products", "setting": "[9]", "value": "neither the control nor the peptide construct comprising the enterokinase substrate was cleaved"}, {"measurement": "protease cleavage, PAGE of reaction products", "setting": "[10]", "value": "then treated with thrombin, the peptide construct comprising the thrombin substrate was cleaved"}]}
{"substance": "enterokinase", "values": [{"measurement": "protease cleavage, PAGE of reaction products", "setting": "[9]", "value": "When treated with enterokinase, the peptide construct comprising the enterokinase substrate was cleaved"}, {"measurement": "protease cleavage, PAGE of reaction products", "setting": "[10]", "value": "neither the control nor the peptide construct comprising the thrombin substrate were cleaved"}]}
{"substance": "NS3 (hepacivirin) protease of hepatitis C virus", "values": [{"measurement": "protease cleavage, release from beads and sequencing counts", "setting": "[11]", "value": "Peptide EAIYQCCD (SEQ ID NO:12) represents a peptide substrate that does not fit the known HCV NS3 protease consensus"}, {"measurement": "protease cleavage, release from beads and sequencing counts", "setting": "[12]", "value": "cleavage of 3 of the 4 known sites published in the MEROPS database was detected"}, {"measurement": "protease cleavage, release from beads and sequencing counts", "setting": "SEQ ID NO 28", "value": "map of peptide cleavage sites identified by assaying overlapping 8-mer peptides of HCV polyprotein (SEQ ID NOS:22, 23, 24, 25, 8, 26, 9, 27, 10, 28, 12, and 29"}, {"measurement": "protease cleavage, release from beads and sequencing counts", "setting": "[13]", "value": "cleavage of 3 of the 4 known sites published in the MEROPS database was detected"}, {"measurement": "protease cleavage, release from beads and sequencing counts", "setting": "[14]", "value": "cleavage of 3 of the 4 known sites published in the MEROPS database was detected"}, {"measurement": "protease cleavage, release from beads and sequencing counts", "setting": "SEQ ID NO 29", "value": "map of peptide cleavage sites identified by assaying overlapping 8-mer peptides of HCV polyprotein (SEQ ID NOS:22, 23, 24, 25, 8, 26, 9, 27, 10, 28, 12, and 29"}, {"measurement": "protease cleavage, release from beads and sequencing counts", "setting": "[15]", "value": "the undetected site, EVVTSTWV (SEQ ID NO:11), is known to be cleaved only in cis"}, {"measurement": "protease cleavage, release from beads and sequencing counts", "setting": "SEQ ID NO 27", "value": "map of peptide cleavage sites identified by assaying overlapping 8-mer peptides of HCV polyprotein (SEQ ID NOS:22, 23, 24, 25, 8, 26, 9, 27, 10, 28, 12, and 29"}, {"measurement": "protease cleavage, release from beads and sequencing counts", "setting": "SEQ ID NO 23", "value": "map of peptide cleavage sites identified by assaying overlapping 8-mer peptides of HCV polyprotein (SEQ ID NOS:22, 23, 24, 25, 8, 26, 9, 27, 10, 28, 12, and 29"}, {"measurement": "protease cleavage, release from beads and sequencing counts", "setting": "SEQ ID NO 24", "value": "map of peptide cleavage sites identified by assaying overlapping 8-mer peptides of HCV polyprotein (SEQ ID NOS:22, 23, 24, 25, 8, 26, 9, 27, 10, 28, 12, and 29"}, {"measurement": "protease cleavage, release from beads and sequencing counts", "setting": "SEQ ID NO 25", "value": "map of peptide cleavage sites identified by assaying overlapping 8-mer peptides of HCV polyprotein (SEQ ID NOS:22, 23, 24, 25, 8, 26, 9, 27, 10, 28, 12, and 29"}, {"measurement": "protease cleavage, release from beads and sequencing counts", "setting": "SEQ ID NO 22", "value": "map of peptide cleavage sites identified by assaying overlapping 8-mer peptides of HCV polyprotein (SEQ ID NOS:22, 23, 24, 25, 8, 26, 9, 27, 10, 28, 12, and 29"}, {"measurement": "protease cleavage, release from beads and sequencing counts", "setting": "SEQ ID NO 26", "value": "map of peptide cleavage sites identified by assaying overlapping 8-mer peptides of HCV polyprotein (SEQ ID NOS:22, 23, 24, 25, 8, 26, 9, 27, 10, 28, 12, and 29"}]}
